Results on four molecules are retold here after patent US20180186893A1 (NATIONAL RESEARCH COUNCIL OF CANADA, published 2018).

Where only a bound is given, the exact number is not on record here.

Assay [1] deals with human Carbonic Anhydrase IX (hCA-IX) (human, UniProt Q16790 38-459). Kind of assay: cell-based or functional assay.
Another assay concerns the target T1, rhCA-IV (human, UniProt P22748 19-283, limits assumed).
T1 construct: Bought; construct not described; also called recombinant human CA-IV
Nature of the assay: SPR, antibody captured by anti-human Fc.

The target in the next assay is T2, rhCA-XII (human, UniProt O43570 25-291, limits assumed).
T2 construct: Bought; construct not described; also called recombinant human CA-XII (Sino Biologics)
T2 sequence (O43570 25-291 limits assumed): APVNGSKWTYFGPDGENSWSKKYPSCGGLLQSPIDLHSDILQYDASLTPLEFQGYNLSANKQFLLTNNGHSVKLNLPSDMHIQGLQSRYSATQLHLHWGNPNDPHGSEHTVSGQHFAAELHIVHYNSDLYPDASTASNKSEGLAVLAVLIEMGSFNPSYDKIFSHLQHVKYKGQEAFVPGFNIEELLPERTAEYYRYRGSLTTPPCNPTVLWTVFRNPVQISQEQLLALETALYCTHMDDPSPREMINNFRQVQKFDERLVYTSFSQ
Kind of assay: SPR, antibody captured by anti-human Fc. (In general: Surface plasmon resonance follows binding to a sensor surface in real time, without labels.)

A further assay deals with T3, rhCA-XIV (human, UniProt Q9ULX7 16-290, limits assumed).
T3 construct: Bought; construct not described; also called recombinant human CA-XIV
T3 sequence (Q9ULX7 16-290 limits assumed): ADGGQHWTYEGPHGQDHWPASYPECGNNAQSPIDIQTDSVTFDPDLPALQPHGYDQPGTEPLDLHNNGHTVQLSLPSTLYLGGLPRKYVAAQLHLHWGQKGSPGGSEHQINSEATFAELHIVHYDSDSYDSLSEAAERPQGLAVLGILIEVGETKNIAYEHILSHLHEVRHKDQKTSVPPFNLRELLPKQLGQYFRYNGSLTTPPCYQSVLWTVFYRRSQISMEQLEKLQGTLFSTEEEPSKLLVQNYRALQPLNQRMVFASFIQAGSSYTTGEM
Kind of assay: SPR, antibody captured by anti-human Fc.

The next assay addresses T4, rmCA-IX (murine, UniProt Q8VHB5 32-389, limits assumed).
T4 construct: Bought; construct not described; also called recombinant murine (rm)CA-IX
Nature of the assay: SPR, antibody captured by anti-human Fc.

In assay [2] the target is T5, human CA-XII extracellular domain (ECD) (human, UniProt O43570 25-301).
T5 construct: extracellular domain
T5 sequence (O43570 25-301): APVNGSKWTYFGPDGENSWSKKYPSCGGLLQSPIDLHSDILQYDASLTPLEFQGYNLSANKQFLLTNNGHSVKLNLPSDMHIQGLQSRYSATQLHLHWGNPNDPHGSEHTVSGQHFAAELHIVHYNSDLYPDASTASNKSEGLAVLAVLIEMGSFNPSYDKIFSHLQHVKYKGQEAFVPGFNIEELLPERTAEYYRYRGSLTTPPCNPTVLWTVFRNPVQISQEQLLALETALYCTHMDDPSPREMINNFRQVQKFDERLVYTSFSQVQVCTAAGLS
Kind of assay: SPR, antibody captured by anti-human Fc.

Assay [3] deals with T6, hCA-IX PG domain fragment #2 (aa 47-61) displayed on yeast as Aga2-HA-CA9-MYC (pPNL6), clone 2 A + B (human, UniProt P32781 19-87 (Saccharomyces cerevisiae entry)).
T6 construct: not shown: HA tag; MYC tag
T6 sequence (P32781 19-87 limits assumed): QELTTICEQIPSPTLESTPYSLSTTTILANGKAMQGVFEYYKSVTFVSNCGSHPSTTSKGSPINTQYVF
Kind of assay: YSD whole yeast cell ELISA, native PG tiling fragment. (In general: ELISA stands for enzyme-linked immunosorbent assay.)

In assay [4] the target is T7, hCA-IX PG domain fragment #3 (aa 57-71) displayed on yeast as Aga2-HA-CA9-MYC (pPNL6), clone 3 A + B (human, UniProt P32781 19-87 (Saccharomyces cerevisiae entry)).
T7 construct: not shown: HA tag; MYC tag
T7 sequence (P32781 19-87 limits assumed): as above
The description is as above.

The target in assay [5] is T8, hCA-IX PG domain fragment #4 (aa 67-81) displayed on yeast as Aga2-HA-CA9-MYC (pPNL6), clone 4 A + B (human, UniProt P32781 19-87 (Saccharomyces cerevisiae entry)).
T8 construct: not shown: HA tag; MYC tag
T8 sequence (P32781 19-87 limits assumed): as above
Described as above.

The target in assay [6] is T9, hCA-IX PG domain fragment #5 (aa 77-91) displayed on yeast as Aga2-HA-CA9-MYC (pPNL6), clone 5 A + B (human, UniProt P32781 19-87 (Saccharomyces cerevisiae entry)).
T9 construct: not shown: HA tag; MYC tag
T9 sequence (P32781 19-87 limits assumed): as above
The description is as above.

The target of assay [7] is T10, hCA-IX PG domain fragment #6 (aa 87-101) displayed on yeast as Aga2-HA-CA9-MYC (pPNL6), clone 6 A + B (human, UniProt P32781 19-87 (Saccharomyces cerevisiae entry)).
T10 construct: not shown: HA tag; MYC tag
T10 sequence (P32781 19-87 limits assumed): as above
Described as above.

The target in assay [8] is T11, hCA-IX PG domain fragment #7 (aa 97-111) displayed on yeast as Aga2-HA-CA9-MYC (pPNL6), clone 7 A + B (human, UniProt P32781 19-87 (Saccharomyces cerevisiae entry)).
T11 construct: not shown: HA tag; MYC tag
T11 sequence (P32781 19-87 limits assumed): as above
The assay is described as above.

Assay [9] has as its target T12, hCA-IX PG domain fragment #8 (aa 107-121) displayed on yeast as Aga2-HA-CA9-MYC (pPNL6), clone 8 A + B (human, UniProt P32781 19-87 (Saccharomyces cerevisiae entry)).
T12 construct: not shown: HA tag; MYC tag
The assay is described as above.

In assay [10] the target is T13, hCA-IX PG domain fragment #9 (aa 117-131) displayed on yeast as Aga2-HA-CA9-MYC (pPNL6), clone 9 A + B (human, UniProt P32781 19-87 (Saccharomyces cerevisiae entry)).
T13 construct: not shown: HA tag; MYC tag
T13 sequence (P32781 19-87 limits assumed): as above
The assay is described as above.

Assay [11] concerns the target T14, hCA-IX PG domain fragment #10 (aa 126-140) displayed on yeast as Aga2-HA-CA9-MYC (pPNL6), clone 10 A + B (human, UniProt P32781 19-87 (Saccharomyces cerevisiae entry)).
T14 construct: not shown: HA tag; MYC tag
The assay is described as above.

For assay [12], the target named is T15, hCA-IX PG domain fragment #12 (aa 67-111) displayed on yeast as Aga2-HA-CA9-MYC (pPNL6), clone 12 A + B (human, UniProt P32781 19-87 (Saccharomyces cerevisiae entry)).
T15 construct: not shown: HA tag; MYC tag
T15 sequence (P32781 19-87 limits assumed, chain 1 of 2): as the sequence (P32781 19-87 limits assumed) above
T15 sequence (chain (part 2 of 2), as listed by the source limits assumed, chain 2 of 2): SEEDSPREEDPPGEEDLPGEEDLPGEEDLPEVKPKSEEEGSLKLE
The assay is described as above.

Assay [13] deals with T16, hCA-IX PG domain fragment #13 (aa 107-140) displayed on yeast as Aga2-HA-CA9-MYC (pPNL6), clone 13 A + B (human, UniProt P32781 19-87 (Saccharomyces cerevisiae entry)).
T16 construct: not shown: HA tag; MYC tag
T16 sequence (P32781 19-87 limits assumed, chain 1 of 2): as the sequence (P32781 19-87 limits assumed) above
T16 sequence (chain (part 2 of 2), as listed by the source limits assumed, chain 2 of 2): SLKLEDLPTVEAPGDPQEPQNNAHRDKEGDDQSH
The description is as above.

Assay [14] concerns the target T17, hCA-IX fragment 2 (aa 38-136, +PG+) displayed on yeast as Aga2-HA-CA9-MYC (pPNL6), clone 2B (human, UniProt P32781 19-87; Q16790 38-136).
T17 construct: not shown: HA tag; MYC tag
Nature of the assay: YSD whole yeast cell ELISA, native, normalised to anti-MYC.

In assay [15] the target is T18, dimeric CA-IX extracellular domain (ECD) from mouse (mouse, UniProt Q8VHB5 32-390).
T18 construct: extracellular domain
T18 sequence (Q8VHB5 32-390): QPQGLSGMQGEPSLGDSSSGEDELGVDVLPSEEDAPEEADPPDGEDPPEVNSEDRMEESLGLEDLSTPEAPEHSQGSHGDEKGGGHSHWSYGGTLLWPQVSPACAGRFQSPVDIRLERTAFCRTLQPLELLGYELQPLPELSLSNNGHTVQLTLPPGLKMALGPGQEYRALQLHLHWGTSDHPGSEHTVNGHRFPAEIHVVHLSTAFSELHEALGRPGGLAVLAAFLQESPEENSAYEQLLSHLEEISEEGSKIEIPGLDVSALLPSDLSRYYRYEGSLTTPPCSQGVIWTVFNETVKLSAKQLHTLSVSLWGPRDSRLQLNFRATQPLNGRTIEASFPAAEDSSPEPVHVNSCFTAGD
Nature of the assay: SPR, antibody captured by anti-human Fc, specific binding yes/no.

The target of assay [16] is T19, hCA-IX PG domain fragment #1 (aa 37-51) displayed on yeast as Aga2-HA-CA9-MYC (pPNL6), clone 1 A + B (human, UniProt P32781 19-87 (Saccharomyces cerevisiae entry)).
T19 construct: not shown: HA tag; MYC tag
T19 sequence (P32781 19-87 limits assumed): as the sequence (P32781 19-87 limits assumed) above
Nature of the assay: YSD whole yeast cell ELISA, native PG tiling fragment, normalised to anti-MYC.

Assay [17] addresses T20, hCA-IX PG domain fragment #11 (aa 37-71) displayed on yeast as Aga2-HA-CA9-MYC (pPNL6), clone 11 A + B (human, UniProt P32781 19-87 (Saccharomyces cerevisiae entry)).
T20 construct: not shown: HA tag; MYC tag
The description is as above.

The target of assay [18] is T21, hCA-IX PG domain fragment #14 (aa 37-140) displayed on yeast as Aga2-HA-CA9-MYC (pPNL6), clone 14 A + B (human, UniProt P32781 19-87 (Saccharomyces cerevisiae entry)).
T21 construct: not shown: HA tag; MYC tag
T21 sequence (P32781 19-87 limits assumed, chain 1 of 2): as the sequence (P32781 19-87 limits assumed) above
T21 sequence (chain (part 2 of 2), as listed by the source limits assumed, chain 2 of 2): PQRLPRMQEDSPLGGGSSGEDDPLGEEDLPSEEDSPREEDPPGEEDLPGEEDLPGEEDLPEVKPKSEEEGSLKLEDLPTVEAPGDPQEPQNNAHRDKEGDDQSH
The description is as above.

Assay [19] has as its target T22, hCA-IX fragment 8 (aa 38-414, +PG+CA+) displayed on yeast as Aga2-HA-CA9-MYC (pPNL6), clone 8B (human, UniProt P32781 19-87; Q16790 38-414). Nature of the assay: YSD whole yeast cell ELISA, heat-denatured (80 C, 30 min), normalised to anti-MYC.
For assay [20], the target named is T23, rhCA-IX ECD dimer (human, UniProt Q16790 38-414). Nature of the assay: SPR (ProteOn XPR36), antibody captured by anti-human Fc, 0.74-60 nM antigen flowed, 1:1 model, 25 C.
For assay [21], the target named is T24, rhCA-IX ECD mixture (monomer + dimer) (human, UniProt Q16790 38-414). Kind of assay: SPR (ProteOn XPR36), mAb captured by anti-mouse Fc, 60 nM antigen flowed, 1:1 model, 25 C.
For assay [22], the target named is T23, rhCA-IX ECD dimer. Described as above.
In assay [23] the target is T24, rhCA-IX ECD mixture (monomer + dimer). Nature of the assay: reverse phase protein array, purified antigen; RPPA; ratio native/denatured, purified antigen.
The target of assay [24] is T19, hCA-IX PG domain fragment #1 (aa 37-51) …. Nature of the assay: YSD whole yeast cell ELISA, native PG tiling fragment.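 Also: monoclonal antibody binding to intact yeast cells displaying the fragment, read by ELISA, with the anti-CA-IX signal normalized against the anti-MYC display signal.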
The target of assay [25] is T20, hCA-IX PG domain fragment #11 (aa …). The assay is described as above.
Assay [26] deals with T22, hCA-IX fragment 8 (aa 38-414, +PG+CA+) …. Nature of the assay: YSD whole yeast cell ELISA, native, normalised to anti-MYC.
Assay [27] has as its target T9, hCA-IX PG domain fragment #5 (aa 77-91) …. Kind of assay: YSD whole yeast cell ELISA, native PG tiling fragment, normalised to anti-MYC.
Assay [28] has as its target T10, hCA-IX PG domain fragment #6 (aa …). The assay is described as above.
Assay [29] addresses T15, hCA-IX PG domain fragment #12 (aa …). Described as above.

T4 sequence (Q8VHB5 32-389 limits assumed): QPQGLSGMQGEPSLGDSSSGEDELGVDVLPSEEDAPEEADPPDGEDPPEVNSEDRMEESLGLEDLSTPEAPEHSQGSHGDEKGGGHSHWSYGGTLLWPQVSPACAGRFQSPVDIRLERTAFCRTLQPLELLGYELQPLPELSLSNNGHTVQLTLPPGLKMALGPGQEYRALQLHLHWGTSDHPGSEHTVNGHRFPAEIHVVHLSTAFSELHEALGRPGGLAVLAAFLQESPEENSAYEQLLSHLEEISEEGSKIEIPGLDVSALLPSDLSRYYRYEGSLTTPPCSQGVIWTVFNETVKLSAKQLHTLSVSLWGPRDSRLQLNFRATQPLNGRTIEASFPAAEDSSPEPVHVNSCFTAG
T1 sequence (P22748 19-283 limits assumed): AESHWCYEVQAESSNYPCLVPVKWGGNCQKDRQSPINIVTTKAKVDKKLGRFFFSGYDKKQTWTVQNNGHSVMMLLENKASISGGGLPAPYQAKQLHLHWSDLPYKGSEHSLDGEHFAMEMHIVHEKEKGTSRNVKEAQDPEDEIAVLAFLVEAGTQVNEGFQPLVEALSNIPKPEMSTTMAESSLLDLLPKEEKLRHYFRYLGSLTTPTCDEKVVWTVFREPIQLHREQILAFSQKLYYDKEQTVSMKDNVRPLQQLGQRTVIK
T17 sequence (P32781 19-87 limits assumed, chain 1 of 2, other chains not shown): as the sequence (P32781 19-87 limits assumed) above
T14 sequence (P32781 19-87 limits assumed): as above
T22 sequence (P32781 19-87 limits assumed, chain 1 of 2, other chains not shown): as the sequence (P32781 19-87 limits assumed) above
T20 sequence (P32781 19-87 limits assumed, chain 1 of 2): as the sequence (P32781 19-87 limits assumed) above
T20 sequence (chain (part 2 of 2), as listed by the source limits assumed, chain 2 of 2): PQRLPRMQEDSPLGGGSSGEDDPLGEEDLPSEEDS
T12 sequence (P32781 19-87 limits assumed): as the sequence (P32781 19-87 limits assumed) above

B1: c12H8 (chimeric 12H8, human IgG1 / human kappa 1) (antibody, V domains shown)
VH: QIQLVQSGPELKKPGETVKISCKASGYTFTNYGMNWVQQAPGKGLKWMGWINTYTGEPTYADDFKGRFAFSLETSASTAYLQINNLKNEDMATYFCARGGIATPTSYWGQGTTLTVSS
VL: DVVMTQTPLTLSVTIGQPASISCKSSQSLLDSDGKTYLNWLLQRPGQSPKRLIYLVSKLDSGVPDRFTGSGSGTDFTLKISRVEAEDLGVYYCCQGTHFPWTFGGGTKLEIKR
notes: Expressed in CHO cells
One may read the Kd as the free concentration of one partner at which half of the binding sites on the other are occupied at equilibrium, for simple one-to-one binding. Low readings indicate a tighter complex, high ones a looser complex. In the case of B1, the “IC50 (nM), cell viability of sk-rc-52 cells, surrogate ADC assay (Mab-Zap saporin secondary antibody)” value in [1] is 23.6 nM. The binding result is “no binding (tested: 100 nM)” with rhCA-IV; “no binding (tested: 100 nM)” in the assay with rhCA-XII; “no binding (tested: 100 nM)” in the assay with rhCA-XIV; “no binding (tested: 100 nM)” in the assay with rmCA-IX; “no binding (tested: 100 nM)” in assay [2]; “no binding” in assay [3]. Also, the binding result in assay [4], in [5], in assay [6], in assay [7], in assay [8] and in assay [9] was “no binding” each time. The binding result in assay [10] was “no binding”; in [11] it was “no binding”; in assay [12] it was “no binding”; in [13] it was “no binding”; in assay [14] it was “binds”; in [15], “no binding”. In addition, the binding result in [16], in assay [17], in assay [18] and in assay [19] was “binds” each time. For the same molecule, the dissociation constant (Kd) in the assay with rhCA-IX ECD dimer [20] came to 0.979 nM.

B2: mAb 12H8 (hybridoma-derived) (antibody, mouse IgG1, V domains shown)
VH: B1 VH
VL: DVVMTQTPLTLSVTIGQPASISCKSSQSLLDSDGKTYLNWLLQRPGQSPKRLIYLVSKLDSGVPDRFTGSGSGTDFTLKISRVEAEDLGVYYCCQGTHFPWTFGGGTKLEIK
notes: also called clone 12H8 (fusion F101); 12HD8
For orientation: koff means the first-order rate constant of dissociation. In the case of B2, in [21], the koff is < 1e-05 s⁻¹. The same molecule returned a Kd in the assay with rhCA-IX ECD dimer [22] of 0.143 nM. Further, the “Ratio (A)/(B), native over denatured” value in assay [23] was determined as 1.11.

B3: c12H8-DM1 (antibody, V domains shown)
VH: B1 VH
VL: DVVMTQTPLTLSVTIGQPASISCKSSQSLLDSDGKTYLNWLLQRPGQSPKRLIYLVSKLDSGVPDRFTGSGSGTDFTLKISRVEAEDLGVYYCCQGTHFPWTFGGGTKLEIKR
modifications: DM1 (mertansine) conjugated with SMCC-DM1, target DAR 3.5; sites not stated
On to B3, for which the “IC50 (nM), cell viability of sk-rc-52 cells, ADC assay” value in assay [1] was determined as 17.9 nM.

B4: c11H9 (chimeric 11H9, human IgG1 / human kappa 1) (antibody, V domains shown)
VH: EVQLVESGGRLVQPKGSLKLSCAASGFTFNTYAMYWIRQAPGKGLEWVARIRSKSNNYAIYYADSVKDRFTISRDDSQSMLYLQMNNLKTEDTAMYYCVRGWDWFAYWGQGTPVTVSA
VL: DVVMTQTPLSLPVSLGDQASISCRSSQSLVHSNGNTYLHWYLQKPGQSPKLLIYKVSNRFSGVPDRFSGSGSGTDFTLKISRVEAEDLGVYFCSQNTHVPPTFGGGTKLEIKR
notes: Expressed in CHO cells; also called chimeric (c) 11H9; c1H9
With B4, the binding result with rhCA-IV is given as “no binding (tested: 100 nM)”; in the assay with rhCA-XII, “no binding (tested: 100 nM)”; with rhCA-XIV it was “no binding (tested: 100 nM)”; with rmCA-IX, “no binding (tested: 100 nM)”; in [2], “no binding (tested: 100 nM)”; in assay [24], “no binding”. The binding result in assay [3], in assay [4], in [5], in [8], in [10] and in assay [11] was “no binding” in each case. The binding result in [25] is on record as “no binding”; in assay [14], “binds”; in assay [26], “binds”; in [27], “binds”; in [28] it was “binds”; in assay [29], “binds”. Also, in assay [18], the binding result is on record as “binds”.
